According to patent US11213590B2, “SSTR-targeted conjugates and particles and formulations thereof” (priority 2016, dated 2022):
Marks after values point to notes of the source that are not given here.

How the values were obtained:
[1] = Drug substance stability study; assay type: physicochemical
Experimental: Stability studies were carried out for Conjugate 57. The tests included in the stability protocols ensure that changes relating to appearance, strength, purity, and moisture of the drug substance are monitored through-out the shelf life of the drug substance. Endotoxins are also monitored by annual inclusion of tests for these attributes in the stability program.
In another stability study, the following conditions were tested: 5° C.±3° C. under nitrogen and −20° C.±5° C. under nitrogen. Nitrogen was selected to prevent oxidation and assure control atmosphere during storage.

SSTR2 = SSTR2 (Homo sapiens, UniProt P30874); experiment: Affinity profile (half-maximal inhibitory concentration), SSTR2; assay type: binding
SSTR2, sequence (P30874 whole entry): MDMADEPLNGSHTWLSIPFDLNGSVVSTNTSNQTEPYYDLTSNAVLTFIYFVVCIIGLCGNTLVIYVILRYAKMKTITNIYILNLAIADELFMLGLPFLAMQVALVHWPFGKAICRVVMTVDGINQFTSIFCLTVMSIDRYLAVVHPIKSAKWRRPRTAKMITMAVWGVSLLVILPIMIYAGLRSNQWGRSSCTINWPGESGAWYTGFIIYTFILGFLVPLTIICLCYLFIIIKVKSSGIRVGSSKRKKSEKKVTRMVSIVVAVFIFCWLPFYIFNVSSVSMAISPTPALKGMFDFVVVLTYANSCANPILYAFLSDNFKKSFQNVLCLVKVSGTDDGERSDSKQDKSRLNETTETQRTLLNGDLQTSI
From the text: DOTATE, also known as DOTA-TATE or DOTA-octreotate, comprises an amide of the acid DOTA, which connects a radionuclide and (Tyr3)-octreotate, a derivative of octreotide. DOTATOC, also known as edotreotide, SMT487, or (DOTA^0-Phe^1-Tyr^3)octreotide, is also an octreotide derivative which can be bound to radionuclides for diagnosis and treatment.

[2] = Lot 1, 5° C. ± 3° C. study, Initial
[3] = Lot 1, −20° C. ± 5° C. study, Initial
[4] = Lot 1 stored at 5° C. ± 3° C., 3 Month
[5] = Lot 1 stored at −20° C. ± 5° C., 3 Month
[6] = Lot 2, 5° C. ± 3° C./Ambient RH under nitrogen, Initial
[7] = Lot 2, 25° C. ± 2° C., 60% RH ± 5% RH study, Initial
[8] = Lot 2 stored at 5° C. ± 3° C./Ambient RH under nitrogen, 1 Month
[9] = Lot 2 stored at 5° C. ± 3° C./Ambient RH under nitrogen, 1 Month, preliminary identification
[10] = Lot 2 stored at 25° C. ± 2° C., 60% RH ± 5% RH, 3 Month

COc1cc2cc(c1Cl)N(C)C(=O)C[C@H](OC(=O)[C@H](C)N(C)C(=O)CCSSC[C@H](NC(=O)[C@@H]1CSSC[C@H](NC(=O)[C@H](N)Cc3ccccc3)C(=O)N[C@@H](Cc3ccc(O)cc3)C(=O)N[C@H](Cc3c[nH]c4ccccc34)C(=O)N[C@@H](CCCCN)C(=O)N[C@@H]([C@@H](C)O)C(=O)N1)C(N)=O)[C@]1(C)O[C@H]1[C@H](C)[C@@H]1C[C@@](O)(NC(=O)O1)[C@H](OC)/C=C/C=C(\C)C2 [Conjugate 57]
degradation on storage ([1]; 5° C.±3° and 25° C./60% Relative Humidity (RH), 3 months): Significant degradation | Appearance [1, 2]: White powder | Assay [1, 2]: 88.2% | Moisture Content by KF [1, 2]: 4.3% | Purity (RP-HPLC) [1, 2]: 98.0% | Total Impurities [1, 2]: 1.9% | Appearance [1, 3]: White powder | Assay [1, 3]: 88.2% | Moisture Content by KF [1, 3]: 4.3% | Purity (RP-HPLC) [1, 3]: 98.0% | Total Impurities [1, 3]: 1.9% | Appearance [1, 4]: White powder | Assay [1, 4]: 88.2% | Purity (RP-HPLC) [1, 4]: 97.4% | Total Impurities [1, 4]: 2.5% | Appearance [1, 5]: White powder | Assay [1, 5]: 90.9% | Purity (RP-HPLC) [1, 5]: 98.0% | Total Impurities [1, 5]: 1.9% | Appearance [1, 6]: White powder | Assay [1, 6]: 97.0% | Moisture Content by KF [1, 6]: 2.1% | Purity (RP-HPLC) [1, 6]: 98.0% | Total Impurities [1, 6]: 2.0% | Starting Materials: BT-976 content ([1]; Lot 2, 5° C. ± 3° C./Ambient RH under nitrogen, Initial, preliminary identification by marker retention time): 0.05%^a | Appearance [1, 7]: White powder | Assay [1, 7]: 88.2% | Moisture Content by KF [1, 7]: 4.3% | Purity (RP-HPLC) [1, 7]: 98.0% | Total Impurities [1, 7]: 1.9% | Appearance [1, 8]: White powder | Assay [1, 8]: 94.6% | Moisture Content by KF [1, 8]: 1.9% | Purity (RP-HPLC) [1, 8]: 96.6% | Total Impurities [1, 8]: 3.4% | Starting Materials: BT-976 content [1, 9]: 0.05% a | Starting Materials: DM1 content [1, 9]: 0.09% a | Appearance [1, 10]: White powder | Assay [1, 10]: 78.7% | Purity (RP-HPLC) [1, 10]: 90.8% | Total Impurities [1, 10]: 9.2% | change in purity on storage ([1]; after 3 months at −20° C.±5° C.): No significant change in purity | time stable ([1]; at −20° C.): at least 3 months | IC50 (SSTR2): 42 pM
